Assay results reported in the RNAGym collection of RNA variant scans (doi:10.1073/pnas.2313332121).

B1: TPR t1 (parent)
chain: GACCAAUCUGCCCUCAGAGCUCGAGAACAUCUUCGGAUGCAGAGGAGGCAGGCUUCGGUGGCGCGAUAGCGCCAACGUCCUCAACCUCCAAUGCAUCCCACCACAUGAUGAUGCCUGAAGAGCCUUGGUUUUUUG

Variants of: B1
Experiment: polymerase ribozyme fitness, log enrichment relative to wild type (log ratio); higher = more active; in vitro selection for triplet polymerase activity
Method in brief: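 Fitness compares each genotype's enrichment to that of the wild type on a logarithmic scale, averaging replicates with inverse-variance weights. The logarithm is base 2. Enrichment came from Illumina sequencing of input and output libraries after one triplicate round of in vitro selection, which included frozen incubation at −7 °C, of PCR-built, transcribed mutant libraries of each subunit of a heterodimeric triplet polymerase ribozyme. Only genotypes with ≥10 input reads and ≥1 read per output were kept.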

Variant	polymerase ribozyme fitness (log ratio)
GACCAACCUGCCCUCAGAGCUCGAGAAGAUCUUCGGAUGCAGAGGAGGCAGGCUUCGGUGUCGCGAUAGCGCCAACGUCCUCAACCUCCAAUGCAUCCCACCACAUGAUGAUGCCUGAAGAGCCUUGGUUUUUUG [U7C C28G G61U]	-3.14
GACCAACCUGCCCUCAGAGCUCGAGAACAUCUUCGGAUGCAGAGGAGGCAGGCUUCGGUGGCGCGAUAGCGCCGACGUCCUCAACCUCCAAUGCAUCCCACCACAUGAUAAUGCCUGUAGAGCCUUGGUUUUUUG [U7C A74G G110A A118U]	-0.453
GACCAACCUGCCCUCAGAGCUCGAGAACAUCUUCGGAUGCAGAGGAGGCAGGCUUCGGUGGUGCGAUAGCGCCAACGUCCUCAACCUCCAAUGCAUCCCACCACAUGAUGAUGCCUGAAAAGCCUUGAUUUUUUG [U7C C62U G120A G128A]	0.578
GACCAACCUGGCCUCAGAGCUCGAGAACAUCUUCGGAUGCAGAGGAGGCAGGCUUCGGUGGCGCGAUAGCGCCAACGUCCUCAACCUCCAAUGCAUCCCCCCACAUGAUGAUGCCUGAAAAGCCUUGGUUUUUUG [U7C C11G A100C G120A]	1.21
GACCAACCUGCCCUCAGAGUUCGAGAACAUCUUCGGAUGCAGAGGAGGCAGGCUUCGGUGGAGCGAUAGCGCCAACGUCCUCCACCUCCAAUGCAUCCCACCACAUGAUGAUGCCUGAGGAGCCUUGGUUUUUUG [U7C C20U C62A A83C A119G]	-1.83
GACCAACCUGCCCUCAGAGCUCGUGAACAUCUUCGGAUGCAGAGGAGGCAGGCUUCGGUGUCGCGAUAGCGCCAACGUCCUCAACCUCCAAUGCAUCCCACCACAUGAUGAUGCCUGAAGAGCCUUGGUUUUUUG [U7C A24U G61U]	-7.38
GACCAAACUGCCCUCAGAGCUCGAGAACAUCUUCGGAUGCAGAGGAGGCAGGCUGCGGUGGCGCGAUAGCGCCAACGUCCUCAACCUCCAAUGCAUCCCACCACAUGAUGAUGCCUGAAGAGCCUUGGUUUUUUG [U7A U55G]	-0.938
GACCAACCUGCCCUCAGAGCUCGAGAACAUCUUUGGAUGCAGAGGAGGACGGCUUCGGUGGCGCGAUAGCGCCAACGUCCUCAACCUCCAAUGCAUCCCACCACAUGAUGAUGCCUGAAGAGCCUUGGUUUUUUG [U7C C34U C49A A50C]	-5.35
GACCAACCUGCCCUCAGAGCUCGAGAACAUCUUCGGAUGCUGAGGAGGCAGGCUUCGGUGGCGCGAUAGCGCCAACGUCCUCAACCUCCAAUGCAUCCCACCACAUGAUGAUGCCUGAAGAGGCUUGGUUAUUUG [U7C A41U C123G U131A]	0.484
GACCAACCUGCCCUCAGAGCUCGAGAACAUCUUCGGAUGCAGAGGAGGCAGGCUUAGGUGGCGCGAUAGCUCCAACGUCCUCAACCUCCCAUGCAUCCCACCACAUGAUGAUGCCUGAAGAGCCUUGGUUUUUUG [U7C C56A G71U A90C]	-3.95
GACCAACCUGCCCUCAGAGCUCGAGAACAUCUUCGGAUGCAGAGGAGGCAGGCUUCGGUGGCGCGAUAGCGACAACGUCCUCGACCUCCAAUGCAUCCCACCACAUGAUGAUGCCUGAAGAGCCUUGGUUUUUUG [U7C C72A A83G]	-0.327
GACCAAACUGCCCGCACAGCUCGAGAACAUCUUCGGAUGCAGAGGAGGCAGGCUUCGGUGGCGCGAUAGCGCCAACGUCCUGAACCUCCAAUGCAUCCCACAACAUGAUGAUGGCUGAAGAGCCUUGGUUUUUUG [U7A U14G G17C C82G C102A C114G]	-5.18
GACCAACCUGCGCUCAGAGCUCGAGAACAUCUUCGGAUGCAGAGGAGGCAGGCUUCGGUGGCGCGAUAGCGCCAACGUCCUCAACCUCCAAUGCAUCCCACCACAUGAUGAUGCCUGAAGAGCCUUGGUUUUUUG [U7C C12G]	0.687
GACCAACCUGCACUCAGAGCUCGAGAACAUCUUCGGAUGCAGAGGAGGCAGGCUUCGGUGGCGCGAUAGCGCCAACGUCCUCAACCUCCAAUGCAUCCCACCACAUGAUGAUGCCUGAAGAGCCUUGGUUUUUUG [U7C C12A]	-0.242
GACCAACCUGUCCUCAGAGCUCGAGAACAUCUUCGGAUGCAGAGGAGGCAGGCUUCGGUGGCGCGAUACCGCCAACGUCCUCAACCUCCAAUGCAUCCCACCACAUGAUGAUGCCUGAAGAGCCUUGGUUUUUUG [U7C C11U G69C]	-1
GACCAAACUGCCCUCAGAGCUCGAGAACAUCUUCGGAUGCAGAGGAGGCAGGCUUCGGUGGCGCGAUAGCGCCAACGCCCUCAACCUCCAAUUCAUCCCACCACAUGAUGAUCCCUGAAGAGCCUUGGUUUUUUG [U7A U78C G93U G113C]	-3.01
GACCAACCUGCCCUCAGAGCUCGAGAACAUCUUCGGAUGCAGAGGAGGCAGGCUUCGGUGGCGCGAUAGUGCCAACGUCCUCAACCUCCAAUGCAUCCCAGCACAUGAUGAUGCCUGAAGAGCCUUGGUUUUUUG [U7C C70U C101G]	-2.79
GACCAACCUGCCAUCAGAGCUCGAGAACAUCUUCGGAUGCAGAGGAGGCAGGCUUCGGUGGCGCGAUAGCGGCAACGUCCUCAACCUCCAACGCAUCCCACCACAUGAUGAUGCCUGAAGAGCCUUGGUUUUUUG [U7C C13A C72G U92C]	-2.47
GACCAACCUGCCCUCAGAGCUCGAGAACAUCUUCGGAUGCAGAGGAGGCAGGCUUCGGUGGCGCGAUAGCGCCCACGUCCUCAACCUCCAAUGCAUCCCACCACAUGAUGAUGCCUGAAGAGCCUUGGUUUUUUG [U7C A74C]	0.236
GACCAACCUGUCCUCAGAGCUCGAGAACAUCUUCGGAUGCAGAGGAGGCAGGCUUCGGUGGCGCGAUAGCGCUAACGUCCUCAACCUCCAAUUCAUCCCACCACAUGAUGAUGCCUGAAGAGCCUUGGUUUUUUG [U7C C11U C73U G93U]	-1.53
GACCAACCUGCCCUCAGAGCUCGAGAACAUCUUCGGAUGCAGAGGAGGCAGGCUUAGGUGGCGCGAUAGCGCCAACGUCCUCAACCUCCAAUGCAUCCCACCACAUGAUGAUGCCUGAAGAGCCUUGGUUUUUUU [U7C C56A G135U]	-1.85

Variant	polymerase ribozyme fitness (log ratio)
GACCAACCUGCCCUCUGAGCUCGAGAACAUCUUCGGAUGCAGAGGAGGCAGGCUUCGGUGGCGCGAUAGCGCCAACGUUCUCAAACUCCAAUGCAUCCCACCACAUGAUGAUGCCUGAAGAGCCUUGGUUUUUUG [U7C A16U C79U C85A]	-4.35
GACCAACCUGCCCUCAGAGCUCGAGAACAUCUUCGGAUGCAGAGGAGGCAGGCUUCGGUGGCGCGAUAGCGGCAACGUCCUCACCCUCCAAUGCAUCCCACCACAUGAUGAUGCCUGAAGAGCCUUGGUUUUUUG [U7C C72G A84C]	-0.576
GACCAACCUGCCCUCGGAGCUCGAGAACAUCUUCGGAUGCAGAGGAGGCAGGCUUCGGUGGCGCGAUAGAGCCAACGUCCUCAACCUCCAAUGUAUCCCACCAUAUGAUGAAGCCUGAAGAGCCUUGGUUUUUUG [U7C A16G C70A C94U C104U U112A]	-1.32
GACCAACCUGACCUCAGAGCUAGAGAACAUCUUCGGAUGCAGAGGAGGCAGGCUUCGGUGGCGCGAUAGCGCCAACGUCCUCAACCUCCAAUGCAUCCCACCACAUGAUGAUGCCUGAAGAGCCUUGGUUUUUUG [U7C C11A C22A]	-5.95
GACCAACCUGCCCUCAGAGCUCGAGAACAUCUUCGGUUGCAGAGGAGGCAGGCUUCGGUGGCGCGAUAGCGCAAACGUCCUCAACCUCCAAUGCAUCCCACCACAUGAUGAUGCCUGAAGAGCCUUGGUUUUUUG [U7C A37U C73A]	-0.516
GACCAACCUGGCCUCAGAGCUCGAGAACAUCUUCGGAUGCAGAGGAGGCAGGCUUCGGUGGAGCGAUAGCGCCAACGUCCUCAACCUCCAAUGCAGCCCACCACAUGAUGAUGCCUGAAGAGCCUUGGUUUUUUG [U7C C11G C62A U96G]	-1.18
GACCAACCUGACCUCAGAGCUCGAGAACAUCUUCGGAUGCAGAGCAGGCAGGCUUCGAUGGCGCGAUAGCGCCAACGUCCUCAACCUCCAAUGCAUCCCACCACAUGAUGAUGCCUGAAGAGCCUUGGUUUUUUG [U7C C11A G45C G58A]	-0.0271
GACCAACCUGCCCUCAGAGCUCGAGAACAUCUUCGGAUGCAGAGGAGGCUGGCUUCGGUGGCGCGAUAGCGCCAACGUCCUUAACCUCCAAUGCAUCCCACCACAUGAUGAUGCCUGAAGAGCCUUGGUUUUUUG [U7C A50U C82U]	-0.98
GACCAACCUGGCCUCAGAGCUCGAGAACAUCUUCGGAUGCAGAGGAGGCAGGCUUCGGUGGCGCGAUAGCGCCAACGUCCUUAACCUCCAAUGCAUCCCACCACAUGAUGAUGCCUGAAGAGCCUUGGUUUUUUG [U7C C11G C82U]	0.131
GACCAACCUGCCCUCAGAGCUCGAGAACAUCUUCGGAUGCAGAGGAGGCAGGCUUCGGUGGCGCGCUAGCGCCAACCUCCUCAACCUACAAUGCAUCCCACCACAUGAUGAUGCCUGAAGAGCCUUGGUUUUUUG [U7C A66C G77C C88A]	-2.34
GACCAACCUCCCCUCAGAGCUCGAGAACAUCUUCGGAUGCAGAGGAGGCAGGCUUCGGUGGCGCGAUAGCGCCAACGUCCUCCACCUCCAAUGCAUCCCACCACAUGAUGAUGCUUGAAGAGCCUUGGUUUUUUG [U7C G10C A83C C115U]	-1.32
GACCAACCUGCCCUCAGAGCUCGAGAACAUCUUCGGAUGCAGAGGAGGUCGGCUUCGGUGGCGCGAUAGCGCCAACGUCCUCAACCUCCAAUGCAUCCUUCCACAUGAUGAUGCCUUAAGAGCCUUGGUUUUUUG [U7C C49U A50C C99U A100U G117U]	-6.3
GACCAACCUGCCCUCAGAGCUCGAGAACAUCUUCGGAUGCAGAGGAGGCAGGCUUUGGUGGCGCGAUAGCGUCAACGUCCUCAACCUCCAAUGCAUCCCACCACAUGAUGAUGCCUGAAGAGCCUUGGUGUUUUG [U7C C56U C72U U130G]	-0.275
GACCAAACUGCCCUCAGAGCUCGAGAACAUCCUCGGAUGCAGAGGAGGCAGGCUUCGGUGGCGCGAUAGCGCCAACGUCCUCAACCUCCAAUGCAUCCCACCACAUGAUGAUGCCUGAAGAGCCUUGGUUUUUUG [U7A U32C]	0.304
GACCAACAUGCCCUCAGAGCUCGAGACCAUCUUCGGAUGCAGAGGAGGCAGGCUUCGGUGGCGCGAUAGCGCCAACGUCCUCAACCUCCAAUGCAUUCCACCACAUGAUGAUGCCUGAAGAGCCUUGGUUUUUUG [U7C C8A A27C C97U]	-2.64
GACCAACCUGCCCUCAGAGCUCGAGAACAUCUUCGGAUGCAGUGGAGGCAGAUUUCGGUGGCGCGAUAGCGCCAACGUCCUCAAACACCAAUGCAUCCCACCACAUGAUGAUGCCUGAAGAGCCUUGGUUUUUUG [U7C A43U G52A C53U C85A U87A]	-4.57
GACCAACGUGCCCUCAGAGCUCGAGAACAUCUUCGGAUGCAGAGGAGGCAGGCUUCGGUGGCGCGAUAGCGCCAACGUACUCAACCUCCAAUGCAUCCCACCACAUGAUAAUGCCUGAAGAGCCUUGGUUUUUUG [U7C C8G C79A G110A]	-2.4
GACCAACCUGCUCUCAGAGCUUGAGAACAUCUUCGGAUGCAGAGGAGGCAGGCUUCGGUGGCACGAUAGCGCCAACGUCCUCAACCUCCAAUGCAUCCCACCACAUGAUGAUGCCUGAAGAGCCUUGGUUUUUUG [U7C C12U C22U G63A]	-4.58
GACCAACCUGCCCUCAGAGCUCGAGAACAUCUUCGGAUGCAGAGGAGGCAGGCUUCGGUGGCGCGAUAGCGUCAACGUCCUCAACCUCCAAUGCAUCCCACCACAUGAUGAUGCCUGAAGAGCCUUGGUUUUUUG [U7C C72U]	0.588
GACCAACCUGCCCUCAGAGCUCGAGAACAUCUUCGGAUGCAGUGGAGGCAGGCUUCGGUGGCGCGAUAGCGGCAACGUCCUCAACCUCCGAUGCAUCCCACCACAUGAUGAUGCCUGAAGAGCAGUGGUUUUCUG [U7C A43U C72G A90G C124A U125G U133C]	-0.0724
GACCAACCUGCCCUCCGAGCUCGAGAACAUCUUCGGAUGCAGAGGAGGCAGCCUUCGGUGGCGCGAUAGCGCCAACGUCCUCAACCUCCAAUGCAUCCCACCACAUGAUAAUGCCUGAAGAGCCUUGGUAUUUUG [U7C A16C G52C G110A U130A]	-5.74
